± gives the uncertainty stated by the source.
Experiment: self-splicing fitness, log relative to wild type (ln ratio); higher = more splicing; Tetrahymena group I intron in knt gene, E. coli kanamycin selection, DiMSum; sequences stand for … in CUCUCU…GGAGGGAAAAGUUAUCAGGCAUGCACCUGGUAGCUAGUCUUUAAACCAAUAGAUUGCAUCGGUUUAAAAGGCAAGACCGUCAAAUUGCGGGAAAGGGGUCAACAGCCGUUCAGUACCAAGUCUCAGGGGAAACUUUGAGAUGGCCUUGCAAAGGGUAUGGUAAUAAGCUGACGGACAUGGUCCUAACCACGCAGCCAAGUCCUAAGUCAACAGAUCUUCUGUUGAUAUGGAUGCAGUUCACAGACUAAAUGUCGGUCGGGGAAGAUGUAUUCUUCUCAUAAGAUAUAGUCGGACCUCUCCUUAAUGGGAGCUAGCGGAUGAAGUGAUGCAACACUGGAGCCGCUGGGAACUAAUUUGUAUGCGAAAGUAUAUUGAUUAGUUUUGGAGUACUCGUGGUCG
Method in brief: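 Fitness was computed with DiMSum as the error-weighted combination of replicate fold changes, kanamycin versus none, each normalised to wild type. The library randomised all eight intron nucleotides of the P1ex region, with the intron placed in the knt kanamycin-resistance gene on pET-22b(+) in E. coli BL21(DE3). Six replicate transformations were grown overnight at 37°C or 30°C on LB agar with or without 25 μg/mL kanamycin, plus 100 μg/mL carbenicillin, 50 μM IPTG and 0.2% rhamnose. Pooled colonies were amplicon-sequenced on an Illumina HiSeq 2500.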

For GCCGAGCAAUAUUACGAGCA, the “self-splicing fitness (ln)” value (30 °C) was -1.93 ± 0.11 and the “self-splicing fitness (ln)” value (37 °C) was -0.944 ± 0.11.

In the case of GGUGAGCAAUAUUACGUCGA, the “self-splicing fitness (ln)” value (30 °C) is reported as -3.18 ± 0.31 and the “self-splicing fitness (ln)” value (37 °C) is reported as -2.42 ± 0.28.

In the case of UUUGAGCAAUAUUACGUAUA, the “self-splicing fitness (ln)” value (30 °C) is reported as -2.78 ± 0.3 and the “self-splicing fitness (ln)” value (37 °C) is reported as -2.67 ± 0.36.

For GACCAGCAAUAUUACGAGGU, the “self-splicing fitness (ln)” value (30 °C) was -2.95 ± 0.12 and the “self-splicing fitness (ln)” value (37 °C) was -3.04 ± 0.2.

With GGAUAGCAAUAUUACGGGCU the “self-splicing fitness (ln)” value (30 °C) was -2.29 ± 0.14 and the “self-splicing fitness (ln)” value (37 °C) was -0.442 ± 0.12.

With CGCCAGCAAUAUUACGAUUU the “self-splicing fitness (ln)” value (30 °C) was -2.75 ± 0.19 and the “self-splicing fitness (ln)” value (37 °C) was -2.62 ± 0.2.

For ACAUAGCAAUAUUACGUAAA, the “self-splicing fitness (ln)” value (30 °C) was -1.66 ± 0.12 and the “self-splicing fitness (ln)” value (37 °C) was -1.75 ± 0.21.

For CAUAAGCAAUAUUACGCUAU, the “self-splicing fitness (ln)” value (30 °C) was -2.93 ± 0.28 and the “self-splicing fitness (ln)” value (37 °C) was -2.99 ± 0.4.

With CCUCAGCAAUAUUACGCAGC the “self-splicing fitness (ln)” value (30 °C) was -3.42 ± 0.14 and the “self-splicing fitness (ln)” value (37 °C) was -2.49 ± 0.17.

For GUAAAGCAAUAUUACGAAGC, the “self-splicing fitness (ln)” value (30 °C) was -1.89 ± 0.13 and the “self-splicing fitness (ln)” value (37 °C) was -1.83 ± 0.22.

With UGUCAGCAAUAUUACGAGUG the “self-splicing fitness (ln)” value (30 °C) was -1.07 ± 0.085 and the “self-splicing fitness (ln)” value (37 °C) was -0.261 ± 0.094.

In the case of AUCAAGCAAUAUUACGCGCU, the “self-splicing fitness (ln)” value (30 °C) is reported as -1.27 ± 0.12 and the “self-splicing fitness (ln)” value (37 °C) is reported as -0.36 ± 0.11.

In the case of ACUAAGCAAUAUUACGCUGC, the “self-splicing fitness (ln)” value (30 °C) is reported as -2.57 ± 0.15 and the “self-splicing fitness (ln)” value (37 °C) is reported as -2.17 ± 0.14.

With GGAAAGCAAUAUUACGACCG the “self-splicing fitness (ln)” value (30 °C) was -0.761 ± 0.12 and the “self-splicing fitness (ln)” value (37 °C) was -0.184 ± 0.17.

For CGCCAGCAAUAUUACGGGUU, the “self-splicing fitness (ln)” value (30 °C) was -2.64 ± 0.1 and the “self-splicing fitness (ln)” value (37 °C) was -2.18 ± 0.12.

In the case of GUUCAGCAAUAUUACGCAUA, the “self-splicing fitness (ln)” value (30 °C) is reported as -0.815 ± 0.083 and the “self-splicing fitness (ln)” value (37 °C) is reported as 0.0985 ± 0.1.

In the case of AUUGAGCAAUAUUACGUUGC, the “self-splicing fitness (ln)” value (30 °C) is reported as -2.94 ± 0.33 and the “self-splicing fitness (ln)” value (37 °C) is reported as -1.64 ± 0.18.

In the case of UCUGAGCAAUAUUACGUGAA, the “self-splicing fitness (ln)” value (30 °C) is reported as -2.32 ± 0.17 and the “self-splicing fitness (ln)” value (37 °C) is reported as -1.9 ± 0.27.

For GUGGAGCAAUAUUACGCAUU, the “self-splicing fitness (ln)” value (30 °C) was -2.84 ± 0.22 and the “self-splicing fitness (ln)” value (37 °C) was -1.14 ± 0.13.

In the case of UGGGAGCAAUAUUACGCGGU, the “self-splicing fitness (ln)” value (30 °C) is reported as -3.43 ± 0.24 and the “self-splicing fitness (ln)” value (37 °C) is reported as -3.8 ± 0.33.

In the case of AAAUAGCAAUAUUACGUCGA, the “self-splicing fitness (ln)” value (30 °C) is reported as -1.78 ± 0.078 and the “self-splicing fitness (ln)” value (37 °C) is reported as -0.255 ± 0.076.

For CACAAGCAAUAUUACGGAGU, the “self-splicing fitness (ln)” value (30 °C) was -3.2 ± 0.13 and the “self-splicing fitness (ln)” value (37 °C) was -2.64 ± 0.15.

With CUUCAGCAAUAUUACGCACA the “self-splicing fitness (ln)” value (30 °C) was -2.37 ± 0.24.

In the case of CGCUAGCAAUAUUACGACAG, the “self-splicing fitness (ln)” value (30 °C) is reported as -0.148 ± 0.059 and the “self-splicing fitness (ln)” value (37 °C) is reported as 0.297 ± 0.076.

With GACCAGCAAUAUUACGGAGU the “self-splicing fitness (ln)” value (30 °C) was -0.646 ± 0.077 and the “self-splicing fitness (ln)” value (37 °C) was 0.000468 ± 0.092.

For AGCGAGCAAUAUUACGAUAU, the “self-splicing fitness (ln)” value (30 °C) was -4.12 ± 0.29 and the “self-splicing fitness (ln)” value (37 °C) was -1.99 ± 0.19.

For UUAGAGCAAUAUUACGGCGC, the “self-splicing fitness (ln)” value (30 °C) was -2.79 ± 0.24 and the “self-splicing fitness (ln)” value (37 °C) was -0.914 ± 0.25.

For GACUAGCAAUAUUACGCCUU, the “self-splicing fitness (ln)” value (30 °C) was -0.605 ± 0.067 and the “self-splicing fitness (ln)” value (37 °C) was 0.734 ± 0.092.

For CGCCAGCAAUAUUACGCUUC, the “self-splicing fitness (ln)” value (30 °C) was -2.77 ± 0.26 and the “self-splicing fitness (ln)” value (37 °C) was -3.27 ± 0.37.

With CACCAGCAAUAUUACGGGCC the “self-splicing fitness (ln)” value (30 °C) was -3.9 ± 0.19 and the “self-splicing fitness (ln)” value (37 °C) was -1.73 ± 0.14.

For UUAAAGCAAUAUUACGGGAG, the “self-splicing fitness (ln)” value (30 °C) was -1.34 ± 0.08 and the “self-splicing fitness (ln)” value (37 °C) was -0.293 ± 0.12.

For AACUAGCAAUAUUACGUGAA, the “self-splicing fitness (ln)” value (30 °C) was -1.86 ± 0.081 and the “self-splicing fitness (ln)” value (37 °C) was -1.51 ± 0.11.

With AUAAAGCAAUAUUACGACCA the “self-splicing fitness (ln)” value (30 °C) was -0.122 ± 0.09 and the “self-splicing fitness (ln)” value (37 °C) was 0.00323 ± 0.12.

With UCCGAGCAAUAUUACGGGCC the “self-splicing fitness (ln)” value (30 °C) was -3.8 ± 0.3 and the “self-splicing fitness (ln)” value (37 °C) was -2.94 ± 0.35.

For CCCAAGCAAUAUUACGCGUG, the “self-splicing fitness (ln)” value (30 °C) was -3.31 ± 0.12 and the “self-splicing fitness (ln)” value (37 °C) was -3.1 ± 0.18.

In the case of AAGGAGCAAUAUUACGUCAC, the “self-splicing fitness (ln)” value (37 °C) is reported as -1.45 ± 0.46.

For AAUCAGCAAUAUUACGACGA, the “self-splicing fitness (ln)” value (30 °C) was -0.461 ± 0.082 and the “self-splicing fitness (ln)” value (37 °C) was 0.386 ± 0.1.

With GUUGAGCAAUAUUACGAAUU the “self-splicing fitness (ln)” value (30 °C) was -3.8 ± 0.34 and the “self-splicing fitness (ln)” value (37 °C) was -1.24 ± 0.34.

With AGGUAGCAAUAUUACGAAAU the “self-splicing fitness (ln)” value (30 °C) was -2.048 ± 0.018 and the “self-splicing fitness (ln)” value (37 °C) was -1.19 ± 0.035.

With AAAUAGCAAUAUUACGAGGG the “self-splicing fitness (ln)” value (30 °C) was -3.73 ± 0.19 and the “self-splicing fitness (ln)” value (37 °C) was -3.61 ± 0.22.

In the case of UGAAAGCAAUAUUACGCGCG, the “self-splicing fitness (ln)” value (30 °C) is reported as -0.237 ± 0.079 and the “self-splicing fitness (ln)” value (37 °C) is reported as -0.153 ± 0.1.

In the case of CAACAGCAAUAUUACGGCAC, the “self-splicing fitness (ln)” value (30 °C) is reported as -2.31 ± 0.13 and the “self-splicing fitness (ln)” value (37 °C) is reported as -1.61 ± 0.13.

For ACUUAGCAAUAUUACGCCAC, the “self-splicing fitness (ln)” value (30 °C) was -3.2 ± 0.31 and the “self-splicing fitness (ln)” value (37 °C) was -3.59 ± 0.31.

For AUUCAGCAAUAUUACGUUAG, the “self-splicing fitness (ln)” value (30 °C) was -3.78 ± 0.15 and the “self-splicing fitness (ln)” value (37 °C) was -1.52 ± 0.1.

For ACGAAGCAAUAUUACGCAGC, the “self-splicing fitness (ln)” value (30 °C) was -2.47 ± 0.21 and the “self-splicing fitness (ln)” value (37 °C) was -0.916 ± 0.18.

For CUAAAGCAAUAUUACGGGAG, the “self-splicing fitness (ln)” value (30 °C) was -0.542 ± 0.056 and the “self-splicing fitness (ln)” value (37 °C) was 0.188 ± 0.077.

For UAGCAGCAAUAUUACGCGCG, the “self-splicing fitness (ln)” value (30 °C) was -1.09 ± 0.17 and the “self-splicing fitness (ln)” value (37 °C) was 0.624 ± 0.17.

For GCAAAGCAAUAUUACGAAGC, the “self-splicing fitness (ln)” value (30 °C) was -1.83 ± 0.25 and the “self-splicing fitness (ln)” value (37 °C) was -2.28 ± 0.34.

Reference: the supplement of paper PMC7877785
